In experiment [1] the target is T1, SARS-CoV-2 prefusion-stabilized spike protein (SARS-CoV-2-PreS) (SARS-CoV-2, UniProt P0DTC2 14-1208). Nature of the experiment: Biacore, apparent affinity.
The target in experiment [2] is T2, Biotinylated CoV2 Spike ECD PreS-AVI protein (SARS-CoV-2, UniProt P0DTC2 14-1208). Nature of the experiment: Octet binning; competitor Std-A. (In general: In BLI a coated tip is dipped into the sample, and binding shifts an interference pattern.)
The target in experiment [3] is T1, SARS-CoV-2 prefusion-stabilized spike …. Nature of the experiment: ELISA. (In general: An ELISA detects its analyte on a solid surface through an enzyme-linked reagent.)
For experiment [4], the target named is T2, Biotinylated CoV2 Spike ECD PreS-AVI …. Nature of the experiment: Octet binning; competitor 11F8.
The target is the same in experiment [5]. Nature of the experiment: Octet binning; competitor 15H7.
Experiment [6] shares this target. Nature of the experiment: Octet binning; competitor Std-B.
For experiment [7] the target is unchanged. Nature of the experiment: Octet binning; competitor 15H1.
Experiment [8] shares this target. Nature of the experiment: Octet binning; competitor 8E9.
For experiment [9] the target is unchanged. Nature of the experiment: Octet binning; competitor 13C8.
The target is the same in experiment [10]. Nature of the experiment: Octet binning; competitor Std-D.
The target is the same in experiment [11]. Nature of the experiment: Octet binning; competitor 9B2.
The target is the same in experiment [12]. Nature of the experiment: Octet binning; competitor 7A9.
For experiment [13] the target is unchanged. Nature of the experiment: Octet binning; competitor 1A11.

B1: 10B8 VHH (VHH)
VHH: QVQLVESGGGLVQPGGSLRLSCAASGITLDYYAIAWFRQAPGKEREGVSCFCSSDGDIRYADSVKGRFTISRDNAKNTVYLQMNSLKPEDTAVYYCATERVYSSTWFFHRYSELDFGSWGRGTQVTVSS
Consider B1, for which the Kd in [1] was less than 0.2 nM.

B2: 19B8 VHH (VHH)
VHH: QVQLVESGGGLVQAGGSLRLSCAASGRTFTNYAMGWFRQAPGKEREFVAAISWSGGGTNYADSVKGRFTISRDNAKNTVYLQMNSPKPEDTAVYYCATTLGYYGSSSRLYEYWGQGTQVTVSS
B2: the Kd in [1] came out at 87 nM.

B3: 1A11 VHH (VHH)
VHH: QVQLVESGGGLVQAGGSLRLSCEVSGSIYSINSMGWYRQAPGKQRELVAGIVSDGRINYADSVKGRFTISRAKNTVYLQMNSLKPEDTAVYYCAADRAFVYAGDYDYLGQGTQVTVSS
Turning to B3, the Kd in [1] is less than 0.2 nM.

B4: 19E10 VHH (VHH)
VHH: QVQLVESGGGLVQPGGSLRLSCVASGSTISINSMGWYRQAPGKAREMVATITNDGPIKYADPVKGRFTISRDNPKNTVYLQMNSLKPEDTAVYYCVADRAYWLAGEWEYWGQGTQVTVSS
On to B4, for which the Kd in experiment [1] came out at 0.73 nM.

B5: 13C8 VHH-Fc (Fc fusion)
chain: QVQLVESGGGLVQAGGSLRLSCAASGRTVNKYMTGWFRQTPGKEREFVASIDWSSTTTHYANSVKGRFTISRDKVKNTVYLQMNGLKPEDTAVYYCAAHQDSSYGYTILPIDYDSWGQGTQVTVSS
What is called EC50 is the midpoint of the concentration-response curve. In the case of B5, the binning response in experiment [2] is 0.34; in [4], 0.11; in experiment [5], 0.1; in [6], 0.31; in experiment [7] it was 0.11; in experiment [8], 0.09. Further, the binning response amounted to 0.1 in [9]; 0.04 in experiment [10]; 0.11 in experiment [11]; 0.37 in experiment [12]; 0.11 in experiment [13]. Further, a half-maximal response in experiment [3] (EC50) required 0.09 nM. For the same molecule, the Kd in experiment [1] was less than 0.2 nM.

B6: 13C8 VHH (VHH)
VHH: QVQLVESGGGLVQAGGSLRLSCAASGRTVNKYMTGWFRQTPGKEREFVASIDWSSTTTHYANSVKGRFTISRDKVKNTVYLQMNGLKPEDTAVYYCAAHQDSSYGYTILPIDYDSWGQGTQVTVSS
Turning to B6, the Kd in experiment [1] is 12 nM.

B7: 16H7 VHH (VHH)
VHH: QVQLVESGGGLVQAGGSLRLSCAASGRAFSKDTMGWFRQAPGKEREFVAVISASGDSTYYADFVKGRFTISRDNAKNTEYLQMNSLKPEDTAVYHCAADGARAYYSINAHRYSWAYNYWGQGTQVTVSS
Turning to B7, in experiment [1], the Kd came out at 230 nM.

B8: 8E9 VHH (VHH)
VHH: QVQLVESGGGLVEAGGSLRLSCVASGSSSSINAMGWYRQAPGKQRELVASISHDGETKYANSVKGRFTISRGNAKNTIYLQMNSLKPEDTAVYYCVGDVAWVVVAGEYDYWGQGTQVTVSS
In the case of B8, the Kd in experiment [1] worked out at 5.7 nM.

B9: 15H1 VHH (VHH)
VHH: QVQLVESGGGLAQAGGSLRLSCASSGLIFSGSAMGWFRQAPGKEREFVGVISWNGRTTYADSVKGRFTISRDDAVNMVWLQMNNLKPEDTAVYYCAADHLNYGSGDVNPRTYDYWGQGTQVTVSS
As for B9, the Kd in [1] stood at 0.6 nM.

B10: 15H7 VHH (VHH)
VHH: QVQLVESGGRLVQAGGSLRLSCAAPGRTFRNLTLGWFRQAPGKEREFVASTSWPDDEMTYYTDSVKGRFTISRDNAKNTVYLQMNSLKPEDTAVYYCAAASWSGRSTLSYDYDYWGQGTQVTVST
Take B10: the Kd in [1] was found to be 0.33 nM.

B11: 5A6 VHH (VHH)
VHH: QVQLVESGGGLAQAGGSLRLSCATSGLTFSMSAMGWFRQAPGNEREFVGVINWNGGSSRYADSVRGRFTISRDNAKNTVYLQMNSLKPEDTGVYYCAADALNIGTGEVNPRLYDYWGQGTQVMVSS
As for B11, the Kd in experiment [1] came out at 0.46 nM.

B12: 11F5 VHH (VHH)
VHH: QVQLVESGGGAVQAGDSLRLSCTASGRTFSTYAVGWFRQAPGKERELLAAITGSGRNPYYPDSLKGRFTISREYAKLPVYLQMNSLKPEDTAVYYCAARRGAIATMPLDYDHWGQGTQVTVSS
With B12, the Kd in experiment [1] is 8 nM.

B13: 6A1 VHH (VHH)
VHH: QVQLVESGGGLVQAGGSLRLSCTASGNIFSVNVMGWHRQAPGKRRELVAALTNDGRRNYADSVKGRFTISRDNAKNTIYLEMNSLKPEDTAVYYCGTGTLESGFNSWGQGLQVTVSS
With B13, in [1], the Kd is more than 500 nM.

B14: 1E4 VHH (VHH)
VHH: QVLLVESGGGLVQAGGLLRLACSASGRTFTENVMGWFRQAPGKEREFVAAINWNTGSTYYSDSRKGRFTISKDNAKNTMFLQINNLKPEDTAVYYCGGTSSSYYYIGEFIPDYWGQGTQVTVSS
B14: in experiment [1], the Kd was 0.25 nM.

B15: 9B2 VHH (VHH)
VHH: QVQLVESGGGLVQPGGSLRLSCAASGFTLDNYAIGWFRQAPGKEREGVSCISSSDGDTQYADSVKGRFTISRDNAKNTVYLQMNSLKPEDTAVYYCAVEKVYARSWFFHLCSELDFGSWGQGTQVTVSS
Consider B15, for which the Kd in [1] came out at 0.61 nM.

B16: 7A9 VHH (VHH)
VHH: QVQLVESGGGLVQAGGSLRLSCSASGGTASRSAMGWFRQAPGKEREFVAGISRRNSGSTYVADSYEDSVKGRFTISRDNAKNTIYLQMNSLKPEDTAVYYCAAEPTLGWYVPRRSVEYEYWGQGTQVTVSS
As for B16, in experiment [1], the Kd came to 0.22 nM.

B17: 20D11 VHH (VHH)
VHH: QVQLVESGGGLVQAGGSLRLSCAASGRTSSIYSVGWFRQAPGKERELVAGITWSGGTTYYSDSVKGRFTISRDNAKNTVNLQMNNLKPEDTAIYYCAVDRYSMTMSARDYDYWGQGTQVTVSS
Consider B17, for which the Kd in [1] was 2.2 nM.

B18: 5G11 VHH (VHH)
VHH: QVQLVESGGGLVQAGGSLRLSCAASGRTFSIYAVGWFRQAPGKERDFVAGITWSGGTTYYSDSVKGRFTISRDNAKNTVYLQMNNLKPEDTAIYYCAVDTYSMTLSARSYDYWGQGTQVTVSS
As to B18, the Kd in experiment [1] was determined as 93 nM.

B19: 14F3 VHH (VHH)
VHH: QVQLVESGGGLVQAGGSLRLSCAASGRTSSIYGVGWFRQAPGKERELVALITWSGGTTYYSDSVKGRFTISKDNAKNTVFLQMNNLKPEDTAIYYCAVDTYSMTMSARDYEYWGQGTQVTVSS
Consider B19, for which the Kd in experiment [1] came out at 3 nM.

B20: 5D7 VHH (VHH)
VHH: QVQLVESGGGLVQAGGSLRLSCAASGRTGSRYIMGWFRQAPGKEREFVAAINWRGDSTYYADSVKGRFTIARDNAKNTAYLQMNSLKPEDTAVYYCVADRGESYYYTRSTEYTYWGQGTQVTVSS
With B20, in experiment [1], the Kd came out at 1.5 nM.

B21: 3D4 VHH (VHH)
VHH: QVQLVESGGGLVQPGGSLRLSCAASGFTLDLNSIGWFRQAPGKEREGVSCISPSGSRMHYADSVKGRFTISRDNAKNTVYLQMNSLKPEDTAVYYCATGSPSYHYCSMYGLEYDSWGQGTQVTVPS
With B21, the Kd in experiment [1] was less than 0.2 nM.

B22: 19C10 VHH (VHH)
VHH: QVQLVESGGGLVQPGGSLRLSCAASGFTLDLNSIGWFRQAPGKEREGVSCISPSASSTHYADSVKGRFTISRDNAKNTVYLQMNSLKPEDTAVYYCATGTPSYHYCSMYGLEYDDWGQGTQVTVSS
As to B22, the Kd in experiment [1] was less than 50 nM.

B23: 11F8 VHH-Fc (Fc fusion)
chain: QVQLVESGGGLVQAGGSLRLSCAASGRTVGYYAVGWFRQAPGKERDFVAAISWSGRNTNYADSVTGRFTIFRDNAKNTVDLQMNSLKPEDTAVYYCAADYWNYGSGSEVPNNYDTWGQGTQVTVSS
On to B23, for which the binning response is 0.17 in experiment [2]; 0.14 in experiment [4]; 0.14 in experiment [5]; 0.29 in experiment [6]; 0.15 in [7]; 0.12 in experiment [8]. Moreover, the binning response came out at 0.15 in experiment [9]; 0.08 in experiment [10]; 0.13 in experiment [11]; 0.35 in experiment [12]; 0.12 in [13]. In [3], this molecule gave an EC50 of 0.19 nM. Further, the Kd in experiment [1] was less than 0.2 nM.

B24: 11F8 VHH (VHH)
VHH: QVQLVESGGGLVQAGGSLRLSCAASGRTVGYYAVGWFRQAPGKERDFVAAISWSGRNTNYADSVTGRFTIFRDNAKNTVDLQMNSLKPEDTAVYYCAADYWNYGSGSEVPNNYDTWGQGTQVTVSS
Regarding B24, the Kd in experiment [1] was determined as 0.95 nM.
